Source: doi:10.1101/2021.05.20.444958

Tested on: His6-DnaA (Escherichia coli K-12?)
Experiment: EMSA

Substance: iraD upstream region, 672 bp
- Kd: 42 nM
